Here are results for 12 sequences from the supplement of paper PMC9170038.

This series concerns MS2 coat protein. Put plainly: apparent KD of MS2 coat protein; higher = weaker reporter binding. The following applies: Eterna round: R107. Put shortly:
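With or without constant ligand, designed RNA switches in 100 mM Tris-HCl pH 7.5, 80 mM KCl and 4 mM MgCl2 were titrated with SNAP-549-labelled MS2 coat protein. Concentrations went up in twofold steps from 0.7 or 1.5 nM to 3 µM. The switches had been transcribed on-chip from Illumina sequencing clusters, and apparent KD is the per-design median of normalised cluster binding-curve fits.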

Where [1] appears, read: input ligand: theophylline 20 uM.
Where [2] appears, read: input ligand: theophylline 2 mM.
The mark [3] stands for this setting: input ligand: tryptophan 2.4 mM.

For “UUACAUGAGGAUCACCCAUGUCAUACAGAAGGAGCGUCACAUAAGACAGGUAGGUCGCUGUUAUUUAAUACUAUUAUAUCCUCUA [JR_Nu_ExcArginiA_Sub027]”, the “apparent KD of MS2 coat protein” value amounted to 26.9 nM (input ligand: arginine 13.2 mM); 33.7 nM (input ligand: none); 44.9 nM under setting [1]; 35.2 nM under setting [2]; 32.8 nM under setting [3].
As for “UUAGAUAUGACGGAUACCAGCGUGUUGUAGAACAUGAGGAUCACCCAUGUAGUGAUCGUGCGCCCUUGGCAGCUGGUAUGUUUGG [7.V]”, the “apparent KD of MS2 coat protein” value (input ligand: arginine 13.2 mM) came to 133 nM, the “apparent KD of MS2 coat protein” value under setting [1] was 491 nM and the “apparent KD of MS2 coat protein” value under setting [3] was determined as 501 nM.
Take “UUCAGACAUGAGGAUCACCCAUGUACUGAAGGAGCGGAUAAAUAUCCAGGUAGGUCGCAGUAUUGAGGGUCUACUUCCAGUCUUU [Reoruser]”: the “apparent KD of MS2 coat protein” value is, setting by setting: (input ligand: arginine 13.2 mM) 8.42 nM; (input ligand: none) 9.48 nM; under setting [1], 11.9 nM; under setting [2], 9.47 nM; under setting [3], 9.82 nM.
As to “UUCAGCUAGUCGGCCGCCACUACAUGAGGAUCACCCAUGUAAUCCUAACACUGCUUCGGCAGUGGUAGGACCGGGACUAGCUGAG”, the “apparent KD of MS2 coat protein” value reads like this: (input ligand: arginine 13.2 mM) 11.1 nM; under setting [1], 14.3 nM; under setting [2], 12.2 nM.
On to “UUCAGCUAGUCGGCCGCCACUACAUGAGGAUCACCCAUGUAUCCUAAACACUGCUUCGGCAGUGGUAGGACCGGGACUAGCUGAG”, for which the “apparent KD of MS2 coat protein” value came out at 18.1 nM (input ligand: arginine 13.2 mM); 13.9 nM (input ligand: none); 21.6 nM under setting [1]; 18.3 nM under setting [2]; 136 nM under setting [3].
For “UUGAUCAUAUAUGAAAACAUAUAUGCAGAAGGAGCGUGAUAAAACACAGGUAGGUCGCUGAAGGGAACAUGAGGAUCACCCAUGU [AstrosSSArgA#3]”, in that order: 30.2 nM, 27.2 nM, 39.4 nM, 34.1 nM and 26.8 nM.
Regarding “UUGUUAUACGGAAGGAGCGUGUAAGAUUAAGAACAUGAGGAUCACCCAUGUUUUAAGGGAACACAGGUAGGUCGCCGUAUAGUGG [11.P]”, the “apparent KD of MS2 coat protein” value amounted to 16.4 nM (input ligand: arginine 13.2 mM); 10 nM (input ligand: none); 13.2 nM under setting [1]; 11.3 nM under setting [2]; 14.7 nM under setting [3].
For “UUGUUGUACGGAAGGAGCGUGUAAGAUUAAGAACAUGAGGAUCACCCAUGUUUUAAGGGAACACAGGUAGGUCGCCGUGUGGUGG [11.Q]”, in that order: 14 nM, 15.1 nM, 20 nM, 16.4 nM and 16.2 nM.
Consider “UUUAUGGAGCUUUUAUUUACGAUUUCUGAUACCAGUGUUUCAUUUCACCCUUGGCAGCAGUGACAUGAGGAUCACCCAUGUAAUA [JR_Nu_SSTheophyA_Sub020]”, for which the “apparent KD of MS2 coat protein” value (input ligand: arginine 13.2 mM) worked out at 28.1 nM, the “apparent KD of MS2 coat protein” value under setting [1] worked out at 35.1 nM and the “apparent KD of MS2 coat protein” value under setting [3] is 27.7 nM.
Take “UUUAUUAUUGACUCGUUUUGGUAUUAAGAACGAGGACCGGUACGGCCGCCACUCGUGAUAUACAUGAGGAUCACCCAUGUUAGCA [JR_Nu_SSTryptoA_Sub021]”: the “apparent KD of MS2 coat protein” value by setting is: (input ligand: arginine 13.2 mM) 19.4 nM; under setting [1], 19.4 nM; under setting [2], 18.3 nM.
On to “UUUUUCGCGGGCGAUACCAGCUUGAUCGUACUGGCCUGGUACAUGAGGAUCACCCAUGUAAGCCCUUGGCAGCGCGCGGGAGAAG [Exclusion - Theophylline B Attempt #1 (HarryS)]”, for which the “apparent KD of MS2 coat protein” value stood at 11.5 nM (input ligand: arginine 13.2 mM); 12.7 nM (input ligand: none); 14.6 nM under setting [1]; 20.2 nM under setting [2]; 15.2 nM under setting [3].
Regarding “UUUUUCGCGUUUGAUACCAGCAGAGUUGUUCUGGUCUGGUACAUGAGGAUCACCCAUGUCUGCCCUUGGCAGCAAACGGGAGAAG [XTheo #30]”, the “apparent KD of MS2 coat protein” value runs as follows: (input ligand: arginine 13.2 mM) 14.5 nM; under setting [1], 15 nM; under setting [3], 14.8 nM.
